Test results from patent US20090011979A1 (published 2009).

Assays:
mouse IL-18 = target: T1, mouse IL-18 (mouse, UniProt P70380 36-192); test: SPR
T1 chain: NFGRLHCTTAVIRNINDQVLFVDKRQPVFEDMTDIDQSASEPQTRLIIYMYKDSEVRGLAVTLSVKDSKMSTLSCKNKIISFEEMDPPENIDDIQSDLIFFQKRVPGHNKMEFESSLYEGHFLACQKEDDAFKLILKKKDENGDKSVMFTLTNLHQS

human IL-18 = human IL-18 (human, UniProt Q14116 37-193); test: SPR
human IL-18, sequence (Q14116 37-193): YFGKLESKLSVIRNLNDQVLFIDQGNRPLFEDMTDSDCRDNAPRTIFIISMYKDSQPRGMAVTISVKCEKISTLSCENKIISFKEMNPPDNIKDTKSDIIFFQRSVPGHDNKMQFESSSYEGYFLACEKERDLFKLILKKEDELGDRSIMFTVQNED

B1: untagged YCI (YMTV IL-18 bp, YMTV Cytokine Inhibitor, without tag) (other)
chain: EKECDKHRSVNIQVPMKETSEVLLRCTGSSYFKHFSYVYWLVGESETVDQLQQNSGYGETSHPSKPHECGNLPSADLVLTNMTEKMRDTKLTCVLMDPDGHIDESLVLREVWDCFNKT
Kd (mouse IL-18): 7.6 nM | Kd (human IL-18): 8.13 nM
